According to patent publication US20250361322A1 (ICONIC THERAPEUTICS, published 2025):
Positions count from the first letter of the chain named. Where two headings read alike, the source gives them in different places.

How the values were obtained:
[1] = target: T1, human Tissue Factor on human TF-positive cells (human, UniProt P13726 33-295); test: flow cytometry, antibody titration on HCT-116 cells (endogenous human TF), 4-parameter fit of MFI
T1 construct: also called hTF; CD142
Method: (§1) After 2 washes, dead cells were labeled with TO-PRO-3 Iodide (ThermoFisher Scientific) and samples were analyzed on a CytoFLEX flow cytometer (Beckman Coulter, Brea, CA, USA) or Novocyte flow cytometer (ACEA Biosciences, San Diego, CA, USA). The median fluorescence intensities (MFIs) at each dilution were plotted and cell EC₅₀'s were derived using a 4-parameter binding model in Prism (GraphPad, La Jolla, CA, USA).

[2] = target: T1, human Tissue Factor on human …; test: competition flow cytometry on MDA-MB-231 cells: antibody titration first, then 20 nM FVII-Fc-Alexa488 as the blocked ligand
Method: (§2) After another 1 hr incubation on ice, cells were washed, stained with a viability dye, and analyzed by flow cytometry. The Alexa488 fluorescence data from viable cells was summarized using median fluorescence intensity.

pig TF ECD-His = target: T2, pig TF ECD-His (pig (Sus scrofa)); test: SPR (Biacore), antibody captured by anti-human IgG
T2 construct: also called pig TF-His; pTF
T2 chain: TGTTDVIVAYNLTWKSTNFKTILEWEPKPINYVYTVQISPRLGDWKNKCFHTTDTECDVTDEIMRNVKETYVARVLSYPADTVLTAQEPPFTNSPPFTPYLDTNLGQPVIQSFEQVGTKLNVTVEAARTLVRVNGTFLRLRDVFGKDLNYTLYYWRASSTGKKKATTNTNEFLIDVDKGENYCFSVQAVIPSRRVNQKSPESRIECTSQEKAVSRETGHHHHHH
Method: (§3) For pig TF Biacore-based measurements, a given anti-TF antibody was captured by an anti-human IgG antibody covalently coupled to a CM5 chip (GE Healthcare Bio-Sciences). Association between the anti-TF antibodies and a five-point three-fold titration of pig TF-His starting at 100 nM was measured for 180 to 240 sec. Subsequently, dissociation between the anti-TF antibody and TF-His was measured for 1800 sec. Kinetic data was analyzed and fitted globally using a 1:1 binding model.
(§4) For rabbit TF Biacore-based measurements, a given anti-TF antibody was captured by an anti-human IgG antibody covalently coupled to a CM5 chip (GE Healthcare Bio-Sciences). Association between the anti-TF antibodies and a five-point three-fold titration of rabbit TF-His starting at 100 nM was measured for 180 to 240 sec. Subsequently, dissociation between the anti-TF antibody and TF-His was measured for 1800 sec. Kinetic data was analyzed and fitted globally using a 1:1 binding model.

rabbit TF ECD-His = target: T3, rabbit TF ECD-His (rabbit (Oryctolagus cuniculus), UniProt P24055 33-250); test: SPR (Biacore), antibody captured by anti-human IgG
T3 construct: also called rabbit TF-His
T3 sequence (P24055 other isoform, or with tags, fused parts or gaps): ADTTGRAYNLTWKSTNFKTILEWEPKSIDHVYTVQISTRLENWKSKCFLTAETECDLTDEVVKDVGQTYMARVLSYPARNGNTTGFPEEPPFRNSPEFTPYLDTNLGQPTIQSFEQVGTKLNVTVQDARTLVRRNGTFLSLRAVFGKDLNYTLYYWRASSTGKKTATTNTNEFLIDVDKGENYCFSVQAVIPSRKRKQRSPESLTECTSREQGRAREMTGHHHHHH
Method: as §3, §4

[3] = target: T4, full-length mouse TF with a C-terminal FLAG tag on Flp-In-CHO cells (mouse, UniProt P20352 29-294); test: flow cytometry on CHO cells expressing mouse TF, MFI at 250 nM antibody
T4 construct: also called CHO-mTF; mouse TF-positive CHO cells
Method: as §1

[4] = target: T5, cynomolgus monkey TF ECD-His6 (cynomolgus monkey (Macaca fascicularis)); test: BLI (ForteBio Octet)
T5 construct: Expi293-derived; also called TF-His; cTF
T5 chain: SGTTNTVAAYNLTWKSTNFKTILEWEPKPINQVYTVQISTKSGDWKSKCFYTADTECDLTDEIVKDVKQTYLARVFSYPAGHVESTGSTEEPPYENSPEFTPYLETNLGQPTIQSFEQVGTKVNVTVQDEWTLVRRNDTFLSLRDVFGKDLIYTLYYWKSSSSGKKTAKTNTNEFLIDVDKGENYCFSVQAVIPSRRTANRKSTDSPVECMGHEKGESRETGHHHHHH

human TF ECD-His6 = target: T6, human TF ECD-His6 (human, UniProt P13726 33-251); test: BLI (ForteBio Octet)
T6 construct: Expi293-derived; Biacore used TF-His; also called TF-His; hTF

[5] = target: T4, full-length mouse TF with a C-terminal …; test: flow cytometry, antibody titration on CHO cells expressing mouse TF
Method: as §1

[6] = target: T7, rabbit TF ECD-His (TF-His) protein (rabbit (Oryctolagus cuniculus), UniProt P24055 33-250); test: Biacore; antibody captured by anti-human IgG on CM5 chip, titration of rabbit TF-His
T7 construct: also called rabbit TF-His
T7 sequence (P24055 other isoform, or with tags, fused parts or gaps): as the sequence (P24055 other isoform, or with tags, fused parts or gaps) above
Method: The ability of certain antibodies was tested for binding to rabbit TF. For rabbit TF Biacore-based measurements, a given anti-TF antibody was captured by an anti-human IgG antibody covalently coupled to a CM5 chip (GE Healthcare Bio-Sciences). Association between the anti-TF antibodies and a five-point three-fold titration of rabbit TF-His starting at 100 nM was measured for 180 to 240 sec. Subsequently, dissociation between the anti-TF antibody and TF-His was measured for 1800 sec. Kinetic data was analyzed and fitted globally using a 1:1 binding model.

[7] = target: T8, pig TF ECD-His (TF-His) protein (pig (Sus scrofa)); test: Biacore; antibody captured by anti-human IgG on CM5 chip, titration of pig TF-His
T8 construct: also called pig TF-His; pTF
T8 chain: T2 chain
Method: (§5) The ability of certain antibodies was tested for binding to pig TF. For pig TF Biacore-based measurements, a given anti-TF antibody was captured by an anti-human IgG antibody covalently coupled to a CM5 chip (GE Healthcare Bio-Sciences). Association between the anti-TF antibodies and a five-point three-fold titration of pig TF-His starting at 100 nM was measured for 180 to 240 sec. Subsequently, dissociation between the anti-TF antibody and TF-His was measured for 1800 sec. Kinetic data was analyzed and fitted globally using a 1:1 binding model.

rTF (rat TF) [8] = target: T9, rTF (rat TF) (rat, UniProt P42533 29-252); test: live cell staining, flow cytometry, transfected HEK293
Method: (§6) To establish binding of the anti-human TF antibodies to the various TF constructs, HEK293 cells were transfected with a DNA plasmid that co-expresses the TF construct and a green fluorescent protein marker. […] Upon acquisition of 80,000 live events on a flow cytometer, live cells marked with the fluorescent marker were analyzed for the degree of staining by the anti-TF antibody.

h1-107_r = target: T10, h1-107_r (human/rat chimera); test: as above
T10 chain: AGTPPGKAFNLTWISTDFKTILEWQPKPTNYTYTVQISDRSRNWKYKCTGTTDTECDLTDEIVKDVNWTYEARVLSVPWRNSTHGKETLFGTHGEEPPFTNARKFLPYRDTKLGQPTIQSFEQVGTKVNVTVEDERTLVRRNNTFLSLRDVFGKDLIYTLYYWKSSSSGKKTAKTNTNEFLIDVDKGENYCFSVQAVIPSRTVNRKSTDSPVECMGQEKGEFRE
Method: as §6

h1-77_r = target: T11, h1-77_r (human/rat chimera); test: as above
T11 construct: Human TF ECD with residues 1-77 replaced by rat segment
Method: as §6

h78-107_r.v2 = h78-107_r.v2 (human/rat chimera); test: as above
Method: as §6

rTF (rat TF) [9] = target: T9, rTF (rat TF); test: as above; remark: listed apart in the source
Method: as §6

[10] = target: T12, hTF (human Tissue Factor construct) (human, UniProt P13726 33-251); test: as above
T12 construct: also called human TF
Method: as §6

r141-194_h = r141-194_h (rat/human chimera, UniProt P42533 29-252); test: as above
Method: as §6

hTF_N171H_T197K = target: T13, hTF_N171H_T197K (human, UniProt P13726 33-251); test: as above
T13 chain: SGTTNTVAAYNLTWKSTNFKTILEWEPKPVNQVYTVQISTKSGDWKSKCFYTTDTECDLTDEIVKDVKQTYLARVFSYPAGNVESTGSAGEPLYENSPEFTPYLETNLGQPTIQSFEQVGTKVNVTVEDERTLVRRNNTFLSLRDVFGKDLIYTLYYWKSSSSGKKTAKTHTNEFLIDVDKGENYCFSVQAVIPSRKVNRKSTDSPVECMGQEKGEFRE
Method: as §6

pig TF-His [11] = target: T14, pig TF-His (Pig (Sus scrofa)); test: Biacore SPR, antibody captured by anti-human IgG on CM5, pig TF-His titrated
T14 construct: also called pig TF ECD-His; pTF
T14 chain: T2 chain
Method: as §5

pig TF-His [12] = target: T14, pig TF-His; test: Biacore SPR, antibody captured by anti-human IgG on CM5, pig TF-His titrated from 100 nM, 1:1 fit
Method: as §5

[13] = target: T15, rTF (rat TF) construct on HEK293 cells (rat, UniProt P42533 29-252); test: live cell staining, HEK293 cells
T15 construct: not shown: transmembrane/cytoplasmic anchor of the cell-surface construct
T15 sequence (P42533 29-252 limits assumed): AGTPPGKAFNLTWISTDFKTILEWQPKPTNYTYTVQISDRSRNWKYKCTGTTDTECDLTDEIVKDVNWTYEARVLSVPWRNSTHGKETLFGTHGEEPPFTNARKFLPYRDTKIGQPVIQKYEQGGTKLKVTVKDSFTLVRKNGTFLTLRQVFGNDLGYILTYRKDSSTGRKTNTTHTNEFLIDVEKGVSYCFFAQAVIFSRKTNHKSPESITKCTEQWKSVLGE

[14] = target: T1, human Tissue Factor on human …; test: competition flow cytometry on MDA-MB-231 cells: antibody titration first, then 20 nM FVII-Fc-Alexa488 as the blocked ligand; remark: listed apart in the source
[15] = target: T1, human Tissue Factor on human …; test: competition flow cytometry on MDA-MB-231 cells: unlabeled antibody titration first, then 20 nM 39A-Alexa488 as the competitor
Method: as §2

B1: 1G (antibody, human IgG1, V domains shown)
VH: EVQLLESGGGLVQPGGSLRLSCAASGFTFSSYAMAWVRQAPGKGLEWVSAISGSGGLTYYADSVKGRFTISRDNSKNTLYLQMNSLRAEDTAVYYCAKAPYGYYMDVWGKGTTVTVSS
VL: not shown
notes: Human IgG1; also called antibody designated 1G
[1]
  EC50: 0.058 nM
[2]
  IC50 (read off the curve): ~1 nM
Pig TF ECD-His
  binding result: no binding (tested: titration starting at 100 nM)
Rabbit TF ECD-His
  binding result: no binding (tested: titration starting at 100 nM)
[3]
  MFI at 250 nM: 4300
[4]
  Kd: 2.7 nM
Human TF ECD-His6
  Kd: 2.2 nM
[5]
  binding result: no binding (tested: 250 nM)

B2: anti-TF antibody 1G (antibody, human IgG1, V domains shown)
VH: B1 VH
VL: not shown
notes: Human IgG1
[6]
  binding result: no binding
[7]
  binding result: no binding

B3: 1F (antibody, V domains shown)
VH: B1 VH with S31D, A35G, A50T
VL: not shown
notes: Human IgG (detected with anti-human IgG-Fc)
rTF (rat TF) [8]
  percent antibody binding to TF construct relative to hTF: 0%
h1-107_r
  percent antibody binding to TF construct relative to hTF: 0%
h1-77_r
  percent antibody binding to TF construct relative to hTF: 0%
h78-107_r.v2
  percent antibody binding to TF construct relative to hTF: 0%
rTF (rat TF) [9]
  percent antibody binding to TF construct relative to hTF: 0%
[10]
  percent antibody binding to TF construct relative to hTF: 100%
r141-194_h
  percent antibody binding to TF construct relative to hTF: 0%
hTF_N171H_T197K
  percent antibody binding to TF construct relative to hTF: 83%

B4: 1G (antibody, V domains shown)
VH: B1 VH
VL: not shown
notes: Human IgG (captured by anti-human IgG in the Biacore assay); also called antibody designated 1G
Pig TF-His [11]
  binding result: no binding

B5: 29D (antibody, human IgG1, V domains shown)
VH: QVQLVESGGGVVQPGRSLRLSCAASGFTFHSRGMHWVRQAPGKGLEWVAVITYDGINKYYADSVEGRFTISRDNSKNTLYLQMNSLRAEDTAVYYCARDGVYYGVYDYWGQGTLVTVSS
VL: not shown
notes: Human IgG1; also called antibody designated 29D
[1]
  EC50: 0.237 nM
[2]
  IC50 (read off the curve): ~2 nM
Pig TF ECD-His
  binding result: no binding (tested: titration starting at 100 nM)
Rabbit TF ECD-His
  binding result: no binding (tested: titration starting at 100 nM)
[3]
  MFI at 250 nM: 30000
[4]
  Kd: 12 nM
Human TF ECD-His6
  Kd: 3.3 nM
[5]
  binding result: no binding (tested: 250 nM)

B6: 29E (antibody, V domains shown)
VH: B5 VH with H30R, R32Y
VL: not shown
notes: as for B3
rTF (rat TF) [8]
  percent antibody binding to TF construct relative to hTF: 0%
h1-107_r
  percent antibody binding to TF construct relative to hTF: 0%
h1-77_r
  percent antibody binding to TF construct relative to hTF: 0%
h78-107_r.v2
  percent antibody binding to TF construct relative to hTF: 0%
rTF (rat TF) [9]
  percent antibody binding to TF construct relative to hTF: 0%
[10]
  percent antibody binding to TF construct relative to hTF: 100%
r141-194_h
  percent antibody binding to TF construct relative to hTF: 0%
hTF_N171H_T197K
  percent antibody binding to TF construct relative to hTF: 98%

B7: 29D (antibody, V domains shown)
VH: B5 VH
VL: not shown
notes: Human IgG (captured by anti-human IgG in the Biacore assay); also called antibody designated 29D
Pig TF-His [11]
  binding result: no binding

B8: anti-TF antibody 29D (antibody, human IgG1, V domains shown)
VH: B5 VH
VL: not shown
notes: Human IgG1
[6]
  binding result: no binding
[7]
  binding result: no binding

B9: 43D8 (antibody, V domains shown)
VH: QVQLQQWGAGLLKPSETLSLTCAVYGGSLSGYYWSWIRQPPGKGLEWIGEIGASGSTRYNPSLKSRVTISVDTSKNQFSLKLSSVTAADTAVYYCARDTPYYYEGGYYYYMDVWGKGTTVTVSS
VL: EIVLTQSPGTLSLSPGERATLSCRASQSVSSSFLAWYQQKPGQAPRLLIYGAYSRATGIPDRFSGSGSGTDFTLTISRLEPEDFAVYYCQQAGVVPYTFGGGTKVEIK
notes: Human IgG (captured by anti-human IgG in the Biacore assay); also called antibody designated 43D8
Pig TF-His [12]
  Kd: 12.9 nM

B10: TF-011 (antibody, V domains shown)
VH: EVQLLESGGGLVQPGGSLRLSCAASGFTFSNYAMSWVRQAPGKGLEWVSSISGSGDYTYYTDSVKGRFTISRDNSKNTLYLQMNSLRAEDTAVYYCARSPWGYYLDSWGQGTLVTVSS
VL: DIQMTQSPPSLSASAGDRVTITCRASQGISSRLAWYQQKPEKAPKSLIYAASSLQSGVPSRFSGSGSGTDFTLTISSLQPEDFATYYCQQYNSYPYTFGQGTKLEIK
notes: Previously described anti-TF antibody; also called tisotumab
[13]
  binding result: no binding
[14]
  IC50: 1.01 nM
[15]
  IC50: 0.61 nM

B11: 25G9 (antibody, V domains shown)
VH: QVQLVQSGAEVKKPGASVKVSCKASGYTFRSYGISWVRQAPGQGLEWMGWVAPYSGNTNYAQKLQGRVTMTTDTSTSTAYMELRSLRSDDTAVYYCARDAGTYSPYGYGMDVWGQGTTVTVSS
VL: DIQMTQSPSTLSASVGDRVTITCQASQSIDSWLAWYQQKPGKAPKLLIYSASYLESGVPSRFSGSGSGTEFTLTISSLQPDDFATYYCQRFQSLPPFTFGGGTKVEIK
notes: Human IgG (captured by anti-human IgG in the Biacore assay); also called antibody designated 25G9
Pig TF-His [12]
  Kd: 3.31 nM
